We go through one molecule from patent US20220348651A1, “ENTPD2 ANTIBODIES, COMBINATION THERAPIES, AND METHODS OF USING THE ANTIBODIES AND COMBINATION THERAPIES” (Novartis AG, priority 2019, published 2022).

Data set [1] relates to human ENTPD2 engineered B16LM3 clone B5. In words: Human ENTPD2 engineered B16LM3 clone B5 model, dose response with anti-PD-1 Ab. The format is in vivo. The source says: This model was derived from the B16LM3 melanoma model, where endogenous mouse ENTPD2 expression was knocked out via a transient electroporation of CAS9 protein with CRISPR guide RNA sequences against mouse ENTPD2, and human ENTPD2 was overexpressed using a retroviral transduction approach.
Once tumors reached approximately 35-50 mm^3, mice were randomized according to tumor volume into treatment groups (n=8 per group). […] All doses were adjusted to individual mouse body weights.

A further data set has as its system NIH/3T3 cells. In words: Cross reactivity: FACS binding to NIH/3T3 control cells. The settings on record: 50 nM antibody. As for the experimental part:
(§1) FACS screening: Specific binding of candidate antibodies to endogenously expressed ENTPD2 was assessed by flow cytometry. Cells were rinsed thoroughly with 1×PBS and treated with Accutase (Millipore #SCR005) to lift from growth plates and resuspended at approximately 1×10^5 cells/90 μL in 1× FACS buffer (2% FBS+0.1% NaN3 in PBS). In a 96-well U-bottom plate, 10 μL of 10× antibody solution in FACS buffer was pre-seeded and 90 μL of cell suspension was added. Cell were incubated for 30 minutes at 4° C., washed 1× with cold PBS and resuspended in 100 μL of 1:500 secondary antibody 1× FACS buffer (Allophycocyanin conjugated F(ab′)2 goat anti-human IgG, Fcγ specific; Jackson Immunoresearch, Cat#109-136-098). After additional incubation for 15 min at 4° C., cells were washed twice with PBS and resuspended in 100 μL of 1×FACS buffer with 4 μg/mL propidium iodide (Life Technologies, Cat#P3566). Geometric mean fluorescence intensity was calculated on live single cells using FlowJo software.
(§2) Cross reactivity Human ENTPD1 (NP_001767) expressing NIH/3T3 cells were generated using a retroviral transduction approach. 72 hrs post transduction, engineered cells were stained with the anti-Human CD39/ENTPD1 APC-conjugated Antibody (R&D systems, Minneapolis, Minn.) and live cells that expressed human ENTPD1 were separated from the rest of the population via fluorescence activated cell sorting. […]

The next data set has as its target T1, Human ENTPD1 (Homo sapiens, UniProt P49961).
T1 construct: expressed in transfected cells; host or cells: NIH/3T3 (retroviral transduction, FACS-sorted)
T1 sequence (P49961 1-510): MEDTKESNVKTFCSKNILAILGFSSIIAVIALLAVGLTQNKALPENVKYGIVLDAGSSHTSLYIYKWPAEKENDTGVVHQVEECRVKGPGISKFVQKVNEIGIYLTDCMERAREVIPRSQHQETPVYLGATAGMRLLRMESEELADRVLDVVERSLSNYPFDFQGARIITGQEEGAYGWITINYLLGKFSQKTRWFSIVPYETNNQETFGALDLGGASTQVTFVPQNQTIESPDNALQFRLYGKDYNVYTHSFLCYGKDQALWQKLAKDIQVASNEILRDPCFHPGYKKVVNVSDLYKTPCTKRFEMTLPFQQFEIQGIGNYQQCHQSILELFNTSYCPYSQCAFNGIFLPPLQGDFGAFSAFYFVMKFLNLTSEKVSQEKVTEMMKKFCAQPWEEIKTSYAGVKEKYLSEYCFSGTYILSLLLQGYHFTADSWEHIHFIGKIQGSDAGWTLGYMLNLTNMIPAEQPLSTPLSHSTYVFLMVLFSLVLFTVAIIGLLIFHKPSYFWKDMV
In words: Cross reactivity: FACS binding to human ENTPD1 expressing NIH/3T3 cells. The settings on record: NIH/3T3-ENTPD1 cells, 50 nM antibody. As for the experimental part:
as §1, §2

The test system of another data set is H520 cells. In words: Cross reactivity: FACS binding to H520 cells (ENTPD3 and ENTPD8 expression). Also noted: species or system human. The settings on record: 50 nM antibody. As to the method: as §1
H520 cells were identified as a cancer cell line with ENTPD3 (Ct 25) and ENTPD8 (Ct 26) expression by Taqman and were used for selectivity screening.
(Flow cytometry measures light scatter and fluorescence of single cells or particles in a stream.)

A further data set concerns the target T2, mouse ENTPD2 (Mus musculus, UniProt O55026).
T2 construct: residues 29-462 of mouse or rat ENTPD2 (the extracellular domain); mouse IgK signal peptide (N); His6; made in house; host or cells: FreeStyle 293-F cells, transient transfection
T2 sequence (O55026 29-462): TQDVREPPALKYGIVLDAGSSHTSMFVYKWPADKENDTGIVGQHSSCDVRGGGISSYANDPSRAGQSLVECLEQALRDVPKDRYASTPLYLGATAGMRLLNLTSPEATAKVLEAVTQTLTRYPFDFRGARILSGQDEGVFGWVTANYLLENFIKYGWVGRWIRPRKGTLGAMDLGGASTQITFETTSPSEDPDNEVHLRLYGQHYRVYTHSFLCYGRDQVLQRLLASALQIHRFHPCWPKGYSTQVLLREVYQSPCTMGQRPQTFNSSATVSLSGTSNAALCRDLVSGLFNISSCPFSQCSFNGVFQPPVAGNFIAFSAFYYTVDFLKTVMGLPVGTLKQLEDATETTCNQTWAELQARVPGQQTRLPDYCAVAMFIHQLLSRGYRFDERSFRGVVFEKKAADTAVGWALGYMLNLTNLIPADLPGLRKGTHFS
In words: Antibody specificity: binding to mouse ENTPD2. The settings on record: Mouse ENTPD2. The source says:
Antibody specificity for mAbl-mAblO was confirmed. […] Antibodies mAb8, mAb9, and mAb10 show weak affinity to mouse ENTPD2. None of the selected antibodies bind to rat ENTPD2.

Data set [2] has as its system cynomologus (cyno) ENTPD2. In words: Biacore (SPR) affinity to cyno ENTPD2 ECD. The data set is classed as binding, cynomolgus monkey. As to conditions: 25° C. As for the experimental part:
(§3) Biacore Screening: Affinity was measured by determining the kinetic rate constants using surface plasmon resonance (SPR) on a Biacore T200 or T100 with the T200 sensitivity upgrade instrument (Biacore, GE Healthcare). Antibodies were captured on CM5 sensor chips (Biacore, GE Healthcare) prepared with a mouse anti-human IgG Fc antibody (ThermoFisher catalogue #05-4200) amine coupled to the surface. […] ENTPD2 analytes were allowed to associate for 180 s and dissociate for up to 1800 s depending on the off-rate of the antibody at a flow rate of 30 μL/min. The running buffer was PBS pH 7.2 (prepared from a Corning 10X stock, cat#46-013-CM)+0.05% Tween 20. Regeneration was accomplished with 30 s injections of 3 or 4 M MgCl2 to remove all the captured antibody and remaining complex from the surface, after which fresh antibody was captured. The raw data were analyzed using Biacore T200 Evaluation Software version 1.0 and fit to a 1:1 binding model, with all parameters set to fit globally except for RI, which was set to fit locally.

The next data set concerns the target T3, human ENTPD2 (Homo sapiens, UniProt Q9Y5L3).
T3 construct: residues 29-462 of human or cyno ENTPD2 were cloned into expression vector; GP67 signal peptide (N); made in house; host or cells: High Five (Trichoplusia ni) insect cells, baculovirus
T3 sequence (Q9Y5L3 29-462): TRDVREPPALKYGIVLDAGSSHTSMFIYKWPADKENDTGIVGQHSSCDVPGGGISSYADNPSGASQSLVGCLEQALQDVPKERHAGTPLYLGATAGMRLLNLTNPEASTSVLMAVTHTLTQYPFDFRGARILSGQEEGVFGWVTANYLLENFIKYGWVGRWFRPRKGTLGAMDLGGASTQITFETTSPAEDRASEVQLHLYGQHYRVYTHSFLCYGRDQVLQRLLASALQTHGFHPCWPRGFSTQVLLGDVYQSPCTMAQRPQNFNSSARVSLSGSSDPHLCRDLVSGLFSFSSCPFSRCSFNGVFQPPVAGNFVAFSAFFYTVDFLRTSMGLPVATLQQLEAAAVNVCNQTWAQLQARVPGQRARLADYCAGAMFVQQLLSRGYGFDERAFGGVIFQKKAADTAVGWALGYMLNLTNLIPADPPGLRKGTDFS
In words: Biacore (SPR) affinity to human ENTPD2 ECD. The data set is classed as binding. As to conditions: 25° C. As to the method: as §3

Where [3] appears, read: Day 7, mAb 10 mg/kg dosed D1, no anti-PD-1 Ab.

cynomologus (cyno) ENTPD2, sequence (as listed by the source): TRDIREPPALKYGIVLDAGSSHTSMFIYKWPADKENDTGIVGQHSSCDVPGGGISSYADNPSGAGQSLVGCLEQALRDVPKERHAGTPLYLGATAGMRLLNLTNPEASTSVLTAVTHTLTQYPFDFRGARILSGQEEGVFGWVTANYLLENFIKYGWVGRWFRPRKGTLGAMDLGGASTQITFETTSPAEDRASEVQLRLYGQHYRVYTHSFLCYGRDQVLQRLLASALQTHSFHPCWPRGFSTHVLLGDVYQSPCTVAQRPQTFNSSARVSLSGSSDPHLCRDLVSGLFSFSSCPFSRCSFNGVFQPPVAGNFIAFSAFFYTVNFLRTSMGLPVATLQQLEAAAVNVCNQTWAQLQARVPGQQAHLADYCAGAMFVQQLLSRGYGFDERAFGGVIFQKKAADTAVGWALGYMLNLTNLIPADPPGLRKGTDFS

B1: mAb6: humanized anti-human ENTPD2 antibody from mAb16; VH SEQ ID NO: 70, VL SEQ ID NO: 74 (antibody, V domains shown)
VH: QVQLQESGPGLVKPSQTLSLTCTVSGYSITSGYYWNWIRQHPGKGLEWMGYISYDADNNYNPSLKNRITISRDTSKNQFSLKLSSVTAADTAVYYCAGGYYRYGLGSYSGSYYYVMDYWGQGTTVTVSS
VL: DTQMTQSPSSLSVSVGDRATITCKASQSVDYEGHSYMNWYQQKPGKAPKLLIYAASNLESGVPSRFSGSGSGTDFTLTISSVQPEDFATYYCQQSNEDPPTFGGGTKLEIK
As to B1, the ΔT/ΔC was found to be 41.0% in data set [1] (0.1 mg/kg i.v. day 1, combination with anti-PD-1 Ab fixed dose 10 mg/kg, Day 7); 27.3% in data set [1] (1 mg/kg i.v. day 1, combination with anti-PD-1 Ab fixed dose 10 mg/kg, Day 7); 29.2% in data set [1] (10 mg/kg i.v. day 1, combination with anti-PD-1 Ab fixed dose 10 mg/kg, Day 7). In data set [1] (setting [3]), the “Host Response Survival (alive/total)” value was 8/8. Besides, the “Host Response Δ body weight” value in data set [1] (setting [3]) is recorded as −0.1%. For the same molecule, in data set [1] (setting [3]), the “Tumor Response ΔT/ΔC” value amounted to 60.0%. In addition, in data set [1] (as single agents, i.v. day 1), the anti-tumor efficacy entry was “No significant anti-tumor efficacy”. Also, the “Apparent FACS binding at 50 nM” value in the data set with NIH/3T3 cells, with Human ENTPD1 and with H520 cells was “No binding” in each case. Moreover, the “BIACore KD” value with mouse ENTPD2 is recorded as “No binding”. For the same molecule, the ka in data set [2] worked out at 290000 M⁻¹ s⁻¹; with human ENTPD2 it was 350000 M⁻¹ s⁻¹. In addition, the kd in data set [2] worked out at 0.01 s⁻¹; with human ENTPD2, 0.00026 s⁻¹.
